Test results as given in article doi:10.1101/266718 (bioRxiv, 2018).

Target: T1, Dcp1:Dcp2(1-504) (S. pombe, UniProt Q9P805 1-127; O13828 1-504)
T1 sequence (looked up) 1: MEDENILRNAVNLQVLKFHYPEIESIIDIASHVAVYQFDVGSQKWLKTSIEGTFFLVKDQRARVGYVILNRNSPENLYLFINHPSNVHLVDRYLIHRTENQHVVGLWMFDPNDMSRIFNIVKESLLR
T1 sequence (looked up) 2: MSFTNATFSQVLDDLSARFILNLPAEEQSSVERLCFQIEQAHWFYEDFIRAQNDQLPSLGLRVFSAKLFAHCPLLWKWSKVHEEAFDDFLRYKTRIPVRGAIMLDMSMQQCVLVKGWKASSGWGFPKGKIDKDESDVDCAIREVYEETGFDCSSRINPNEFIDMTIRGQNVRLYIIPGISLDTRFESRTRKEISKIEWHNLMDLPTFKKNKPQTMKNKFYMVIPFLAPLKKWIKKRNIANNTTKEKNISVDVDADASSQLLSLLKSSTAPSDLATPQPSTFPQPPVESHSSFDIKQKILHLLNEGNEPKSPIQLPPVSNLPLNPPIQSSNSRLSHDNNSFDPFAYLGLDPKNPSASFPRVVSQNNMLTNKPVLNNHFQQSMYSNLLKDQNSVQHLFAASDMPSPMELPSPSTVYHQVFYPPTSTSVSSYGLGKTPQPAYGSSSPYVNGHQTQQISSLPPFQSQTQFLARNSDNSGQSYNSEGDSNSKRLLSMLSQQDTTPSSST
Assay: cell-based or functional assay

B1: Edc3 (natural protein, S. pombe, UniProt O94752 1-454, looked up)
chain: MSVADFYGSNVEVLLNNDSKARGVITNFDSSNSILQLRLANDSTKSIVTKDIKDLRILPKNEIMPKNGTKSPSTNSTKLKSAETYSSKNKWSMDCDEEFDFAANLEKFDKKQVFAEFREKDKKDPAKLLVSHNKSPNRNYHHKQNVLGPSVKDEFVDLPSAGSQINGIDAVLSSSSNGHVTPGSKKGSRETLKKKPFVDENIPAELHTTTGDILKPITPEQLSQGIALAIAKTSTDIVVENAAQLLSQFVFSVLGGHKRLSSRNHNSQPLVCILVGSHDHASAAVAAGRRLCAIGIKVVLRLLTPFNVDNRQLLMFQAAGGYIPTENFDQFLNKLTSPIELVVDVLTGFHPSIDKNSHALIQWANDLNVLILSVDIPSGYTVQKKNTAILPKWTLALGAVTTTLAQAALVKQAAGVSVFVGNLGTGSQTWAELGILESQVTGQYLAQISCTSTN
- stimulation of the decapping rate of Dcp1:Dcp2ext by excess Edc3: 30 fold
